Experimental data published in PMC11945200, “Aptamer Paper-Based Fluorescent Sensor for Determination of SARS-CoV-2 Spike Protein”.

Target: SARS-CoV-2 spike S1 protein (SARS-CoV-2, UniProt P0DTC2 13-685)
Test: fluorescence recovery (target-induced release of the probe from Nb2C MXene quencher)
Conditions: protein: recombinant

B1: SARS-CoV-2 S-RBD aptamer (G-CDs@Apt) (ssDNA)
DNA: CAGCACCGACCTTGTGCTTTGGGAGTGCTGGTCCAAGGGCGTTAATGGACA
modifications: 5'-NH2-C6
binding result: binds
